The values that follow come from IntAct's records for PubMed 31515488.

First the molecules themselves.
B1: von Hippel-Lindau disease tumor suppressor (Homo sapiens), P40337-2 (parent)
chain: MPRRAENWDEAEVGAEEAGVEEYGPEEDGGEESGAEESGPEESGPEELGAEEEMEAGRPRPVLRSVNSREPSQVIFCNRSPRVVLPVWLNFDGEPQPYPTLPPGTGRRIHSYRVYTLKERCLQVVRSLVKPENYRRLDIVRSLYEDLEDHPNVQKDLERLTQERIAHQRMGD
B2: UV excision repair protein RAD23 homolog B (Homo sapiens), P54727 (parent)
chain: MQVTLKTLQQQTFKIDIDPEETVKALKEKIESEKGKDAFPVAGQKLIYAGKILNDDTALKEYKIDEKNFVVVMVTKPKAVSTPAPATTQQSAPASTTAVTSSTTTTVAQAPTPVPALAPTSTPASITPASATASSEPAPASAAKQEKPAEKPAETPVATSPTATDSTSGDSSRSNLFEDATSALVTGQSYENMVTEIMSMGYEREQVIAALRASFNNPDRAVEYLLMGIPGDRESQAVVDPPQAASTGAPQSSAVAAAAATTTATTTTTSSGGHPLEFLRNQPQFQQMRQIIQQNPSLLPALLQQIGRENPQLLQQISQHQEHFIQMLNEPVQEAGGQGGGGGGGSGGIAEAGSGHMNYIQVTPQEKEAIERLKALGFPEGLVIQAYFACEKNENLAANFLLQQNFDED
partner: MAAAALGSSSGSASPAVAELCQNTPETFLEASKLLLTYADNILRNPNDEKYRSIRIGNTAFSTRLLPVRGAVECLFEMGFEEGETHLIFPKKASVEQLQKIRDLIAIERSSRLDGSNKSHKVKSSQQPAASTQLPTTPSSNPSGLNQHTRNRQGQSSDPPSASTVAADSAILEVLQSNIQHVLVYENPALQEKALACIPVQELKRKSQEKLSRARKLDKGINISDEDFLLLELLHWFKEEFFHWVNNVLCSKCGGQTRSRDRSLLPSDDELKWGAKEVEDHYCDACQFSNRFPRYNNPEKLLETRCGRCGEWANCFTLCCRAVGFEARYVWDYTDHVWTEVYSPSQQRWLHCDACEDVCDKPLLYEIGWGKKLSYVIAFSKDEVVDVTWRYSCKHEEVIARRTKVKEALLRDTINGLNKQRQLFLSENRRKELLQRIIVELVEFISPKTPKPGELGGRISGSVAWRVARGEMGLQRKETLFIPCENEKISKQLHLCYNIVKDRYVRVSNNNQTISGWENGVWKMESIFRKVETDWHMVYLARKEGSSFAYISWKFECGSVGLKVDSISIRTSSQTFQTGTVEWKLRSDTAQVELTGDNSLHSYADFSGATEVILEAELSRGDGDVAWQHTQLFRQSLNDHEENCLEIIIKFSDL
B3: Syntenin-2 (Homo sapiens), Q9H190 (parent)
chain: MSSLYPSLEDLKVDQAIQAQVRASPKMPALPVQATAISPPPVLYPNLAELENYMGLSLSSQEVQESLLQIPEGDSTAVSGPGPGQMVAPVTGYSLGVRRAEIKPGVREIHLCKDERGKTGLRLRKVDQGLFVQLVQANTPASLVGLRFGDQLLQIDGRDCAGWSSHKAHQVVKKASGDKIVVVVRDRPFQRTVTMHKDSMGHVGFVIKKGKIVSLVKGSSAARNGLLTNHYVCEVDGQNVIGLKDKKIMEILATAGNVVTLTIIPSVIYEHMVKKLPPVLLHHTMDHSIPDA
partner: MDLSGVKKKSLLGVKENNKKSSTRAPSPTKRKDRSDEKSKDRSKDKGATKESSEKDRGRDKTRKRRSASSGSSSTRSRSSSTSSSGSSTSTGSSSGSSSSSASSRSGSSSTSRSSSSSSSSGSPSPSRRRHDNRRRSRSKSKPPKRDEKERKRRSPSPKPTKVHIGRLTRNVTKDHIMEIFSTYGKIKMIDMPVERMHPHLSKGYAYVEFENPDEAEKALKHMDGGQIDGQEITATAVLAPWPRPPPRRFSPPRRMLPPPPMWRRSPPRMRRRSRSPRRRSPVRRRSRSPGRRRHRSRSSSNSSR
B4: 3-hydroxyanthranilate 3,4-dioxygenase (Homo sapiens), P46952 (parent)
chain: MERRLGVRAWVKENRGSFQPPVCNKLMHQEQLKVMFIGGPNTRKDYHIEEGEEVFYQLEGDMVLRVLEQGKHRDVVIRQGEIFLLPARVPHSPQRFANTVGLVVERRRLETELDGLRYYVGDTMDVLFEKWFYCKDLGTQLAPIIQEFFSSEQYRTGKPIPDQLLKEPPFPLSTRSIMEPMSLDAWLDSHHRELQAGTPLSLFGDTYETQVIAYGQGSSEGLRQNVDVWLWQLEGSSVVTMGGRRLSLAPDDSLLVLAGTSYAWERTQGSVALSVTQDPACKKPLG
partner: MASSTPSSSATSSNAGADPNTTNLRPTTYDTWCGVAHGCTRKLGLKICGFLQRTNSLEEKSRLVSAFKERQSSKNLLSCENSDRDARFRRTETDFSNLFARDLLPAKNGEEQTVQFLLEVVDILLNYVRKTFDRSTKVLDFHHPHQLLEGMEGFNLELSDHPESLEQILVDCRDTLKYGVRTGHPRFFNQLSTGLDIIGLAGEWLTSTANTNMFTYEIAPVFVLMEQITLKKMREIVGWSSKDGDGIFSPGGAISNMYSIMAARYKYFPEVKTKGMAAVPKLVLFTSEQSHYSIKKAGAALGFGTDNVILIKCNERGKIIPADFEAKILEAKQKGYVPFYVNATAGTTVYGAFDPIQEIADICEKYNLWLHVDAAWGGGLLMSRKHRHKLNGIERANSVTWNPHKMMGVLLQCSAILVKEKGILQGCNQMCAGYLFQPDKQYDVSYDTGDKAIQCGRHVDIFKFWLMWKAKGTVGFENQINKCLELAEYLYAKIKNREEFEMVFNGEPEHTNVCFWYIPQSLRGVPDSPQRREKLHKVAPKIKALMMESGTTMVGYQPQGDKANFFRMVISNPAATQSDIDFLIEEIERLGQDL
B5: STAM-binding protein (Homo sapiens), O95630 (parent)
chain: MSDHGDVSLPPEDRVRALSQLGSAVEVNEDIPPRRYFRSGVEIIRMASIYSEEGNIEHAFILYNKYITLFIEKLPKHRDYKSAVIPEKKDTVKKLKEIAFPKAEELKAELLKRYTKEYTEYNEEKKKEAEELARNMAIQQELEKEKQRVAQQKQQQLEQEQFHAFEEMIRNQELEKERLKIVQEFGKVDPGLGGPLVPDLEKPSLDVFPTLTVSSIQPSDCHTTVRPAKPPVVDRSLKPGALSNSESIPTIDGLRHVVVPGRLCPQFLQLASANTARGVETCGILCGKLMRNEFTITHVLIPKQSAGSDYCNTENEEELFLIQDQQGLITLGWIHTHPTQTAFLSSVDLHTHCSYQMMLPESVAIVCSPKFQETGFFKLTDHGLEEISSCRQKGFHPHSKDPPLFCSCSHVTVVDRAVTITDLR
partner: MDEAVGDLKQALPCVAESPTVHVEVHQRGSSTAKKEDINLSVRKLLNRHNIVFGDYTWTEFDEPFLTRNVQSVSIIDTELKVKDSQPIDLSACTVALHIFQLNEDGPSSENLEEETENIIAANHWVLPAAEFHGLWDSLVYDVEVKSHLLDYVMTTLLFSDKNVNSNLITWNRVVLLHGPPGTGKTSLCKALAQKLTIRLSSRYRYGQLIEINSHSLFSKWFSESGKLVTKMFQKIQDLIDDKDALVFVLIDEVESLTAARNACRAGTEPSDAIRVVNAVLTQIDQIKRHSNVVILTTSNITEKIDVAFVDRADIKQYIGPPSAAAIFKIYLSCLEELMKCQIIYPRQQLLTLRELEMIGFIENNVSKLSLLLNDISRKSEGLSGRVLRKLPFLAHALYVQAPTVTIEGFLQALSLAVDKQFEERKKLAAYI

One test covers variants of B1. Conditions: with mdfi_human MDFI.
Take H167D: the “effect of a mutation on the interaction” value is “disrupting interaction strength”.

On to S65W, for which the “effect of a mutation on the interaction” value is reported as “with no effect”.

Take F76S: the “effect of a mutation on the interaction” value is given as “disrupting interaction strength”.

Variants of B2 are the subject of another test. Conditions: with ngly1_human NGLY1, Q96IV0.
Take T269R: the “effect of a mutation on the interaction” value is “with no effect”.

Consider P119H, for which the “effect of a mutation on the interaction” value is given as “with no effect”.

In the next test the parent is B3. The settings on record: with rnps1_human RNPS1, Q15287.
Turning to G242R, the “effect of a mutation on the interaction” value is “disrupting interaction strength”.

As to G225R, the “effect of a mutation on the interaction” value was “disrupting interaction strength”.

As for V182M, the “effect of a mutation on the interaction” value is reported as “with no effect”.

Another test covers variants of B4. The settings on record: with dce1_human GAD1, Q99259.
For the variant I37V, the “effect of a mutation on the interaction” value is recorded as “with no effect”.

Regarding T42S, the “effect of a mutation on the interaction” value was “with no effect”.

The variants in the next test derive from B5. The settings on record: with pch2_human TRIP13, Q15645.
On to Q155H, for which the “effect of a mutation on the interaction” value is given as “disrupting interaction strength”.
